Marks after values point to notes of the source that are not given here.
Assays:
[1] = Whole-body autoradiography after injection of 25 μl or 50 μl complex solution into the prostate gland; type: in vivo, male SD rats
Protocol: After one week acclimation, male SD rats were anesthetized with diethylether, and an about 2-cm midline incision was made in the lower abdomen of the pubis. After the prostate gland was exposed along with the bladder, 25 μl and 50 μl (each about 100 μCi) of the complex solution prepared in Example 2 were individually administered to the prostate gland using a syringe. After the rats were sacrificed 0.5 hr and 6 hrs after administration, cryosections were prepared, and whole-body autoradiography was carried out to measure radioactive concentrations in the liver, spleen, kidney, the end region of the femur, spine and administration sites. The measured radioactive concentrations (% ID/g) in various organs after injection of the complex solution are given in Table 1, below.
Numerals of Table 1 indicate mean+standard deviation (n=3).

[2] = Cumulative urinary and fecal excretion of radioactivity for 72 hrs after injection into the prostate gland; type: in vivo, SD rats; settings: for Radioactivity remaining in Carcass / Radioactivity remaining in Prostate gland: 72 hr; for Total recovery rate: 72 hrs
Protocol: After the complex solution was administered to the prostate gland, cumulative urinary and fecal excretions of radioactivity were examined to investigate the amount of excreted ^166Ho. 25 μl of the test drug was administered to the prostate gland of SD rats, which was equal to about 100 μCi. The amount of radioactivity excreted for 72 hrs was measured. The rats were kept in metabolic cages made of a stainless material. Urine and feces were collected, and, 72 hrs after administration, the rats were sacrificed with diethylether. Radioactivity remaining in the carcass and the prostate gland was also measured.

[3] = tested on: DU-145 carcinoma cell line (hormone-independent prostate carcinoma cell line); experiment: Antitumor effect in DU-145 subcutaneous tumor model, intratumoral injection; type: in vivo, nude mice; settings: for Tumor volume after injection: intratumoral; for Tumor growth inhibition rate: last day of the test (2 wks), tumor volume vs control
Protocol: To investigate the effect of the complex on hormone-independent prostate cancer, a DU-145 carcinoma cell line (hormone-independent prostate carcinoma cell line), which is rarely produces prostate-specific antigen, was transplanted into nude mice and the antitumor effect of the complex was evaluated.
The DU-145 cells were cultured in 10% FBS (fetal bovine serum)-containing F-12K(Kaign's Modification of Ham's F-12 medium) in a 5% CO2 incubator at 37° C., and 2×10^5 cells/0.2 ml/head were subcutaneously transplanted into the lumbar portion of male 6-week nude mice. When the long axis of the tumor was about 1 cm long, the complex solution was intratumorally injected. The administration volume of the test drug was 0.2 ml. The mice were divided into four groups: a control group (no treatment); two administration groups administered with the complex solution at doses of 10 mCi and 20 mCi per 1 cm^3 tumor; and another administration group administered with a non-radioactive complex solution [Holmium-165 (^165Ho)-chitosan complex solution]. Two weeks after administration with the complex solution, the mice were histopathologically examined to evaluate the antitumor effect and toxicity to major organs of the complex.

[4] = tested on: AIT tumor transplanted into the prostate gland; experiment: Histopathological examination of tumor tissue of rats of the orthotopic model (hematoxylin and eosin); type: in vivo, noble rats
Source text: From all rats tested in Experimental Example 7, which were sacrificed on the last day of the test, the heart, lung, liver, kidney, spleen, testes, epididymis, seminal vesicle, bladder, rectum and tumor tissues were excised, embedded in paraffin according to general tissue processing, and sectioned into a thickness of 3 μm. The tissue sections were subjected to double staining with hematoxylin and eosin and histopathologically examined.

[5] = 0.5 mCi, four weeks after administration (FIG. 2 C and D)

In the case of “Holmium-166 (^166Ho)-Chitosan Complex [complex solution]”, the “Radioactive concentration, Administration site” value ([1]; 25 μl administration, 30 min) is reported as 4258 ± 732.9 % ID/g, the “Radioactive concentration, End region of femur” value ([1]; 25 μl administration, 30 min) is reported as 0.05 ± 0.030 % ID/g and the “Radioactive concentration, Spine” value ([1]; 25 μl administration, 30 min) is reported as 0.02 ± 0.009 % ID/g. For the same substance, the “Radioactive concentration, Administration site” value ([1]; 25 μl administration, 6 hrs) was 4478 ± 1212.4 % ID/g, the “Radioactive concentration, End region of femur” value ([1]; 25 μl administration, 6 hrs) was 0.16 ± 0.047 % ID/g and the “Radioactive concentration, Kidney” value ([1]; 25 μl administration, 6 hrs) was 0.01 ± 0.002 % ID/g. For the same substance, the “Radioactive concentration, Liver” value ([1]; 25 μl administration, 6 hrs) was 0.04 ± 0.015 % ID/g, the “Radioactive concentration, Spine” value ([1]; 25 μl administration, 6 hrs) was 0.04 ± 0.011 % ID/g and the “Radioactive concentration, Spleen” value ([1]; 25 μl administration, 6 hrs) was 0.03 ± 0.007 % ID/g. The “Radioactive concentration, Administration site” value ([1]; 50 μl administration, 30 min) was 3196 ± 212.5 % ID/g, the “Radioactive concentration, End region of femur” value ([1]; 50 μl administration, 30 min) was 0.05 ± 0.030 % ID/g and the “Radioactive concentration, Kidney” value ([1]; 50 μl administration, 30 min) was 0.02 ± 0.011 % ID/g. For the same substance, the “Radioactive concentration, Liver” value ([1]; 50 μl administration, 30 min) was 0.01 ± 0.007 % ID/g, the “Radioactive concentration, Spine” value ([1]; 50 μl administration, 30 min) was 0.02 ± 0.007 % ID/g and the “Radioactive concentration, Administration site” value ([1]; 50 μl administration, 6 hrs) was 3054 ± 1873.0 % ID/g. For the same substance, the “Radioactive concentration, End region of femur” value ([1]; 50 μl administration, 6 hrs) was 0.10 ± 0.065 % ID/g, the “Radioactive concentration, Kidney” value ([1]; 50 μl administration, 6 hrs) was 0.01 ± 0.001 % ID/g and the “Radioactive concentration, Liver” value ([1]; 50 μl administration, 6 hrs) was 0.03 ± 0.008 % ID/g. The “Radioactive concentration, Spine” value ([1]; 50 μl administration, 6 hrs) was 0.04 ± 0.018 % ID/g, the “Radioactive concentration, Spleen” value ([1]; 50 μl administration, 6 hrs) was 0.02 ± 0.014 % ID/g and the “Radioactivity detected in the administration site” value ([1]; 6 hrs after administration) was “over 90%”. For the same substance, the “Radioactivity in major organs including the liver, spleen and kidney” value ([1]; 6 hrs after administration) was “no radioactivity was detected”, the “Radioactivity in major organs including the liver, spleen and kidney” value ([1]; 6 hrs after administration, listed as radioisotope-chitosan complex) was “rarely detected” and the “Cumulative excretion, Urine” value ([2]; 0-3 hr, animal 1) was 0.03 % of dose. The “Cumulative excretion, Urine” value ([2]; 0-3 hr, animal 2) was 0.03 % of dose, the “Cumulative excretion, Urine” value ([2]; 0-3 hr, animal 3) was 0.04 % of dose and the “Cumulative excretion, Urine” value ([2]; 0-6 hr, animal 1) was 0.04 % of dose. For the same substance, the “Cumulative excretion, Urine” value ([2]; 0-6 hr, animal 2) was 0.04 % of dose, the “Cumulative excretion, Urine” value ([2]; 0-6 hr, animal 3) was 0.05 % of dose and the “Cumulative excretion, Urine” value ([2]; 0-24 hr, animal 1) was 0.11 % of dose. The “Cumulative excretion, Urine” value ([2]; 0-24 hr, animal 2) was 0.13 % of dose, the “Cumulative excretion, Urine” value ([2]; 0-24 hr, animal 3) was 0.17 % of dose and the “Cumulative excretion, Feces” value ([2]; 0-72 hr, Mean) was 0.11 % of dose. For the same substance, the “Cumulative excretion, Urine” value ([2]; 0-72 hr, Mean) was 0.35 % of dose, the “Cumulative excretion, Feces” value ([2]; 0-72 hr, animal 3) was 0.11 % of dose and the “Radioactivity remaining in Carcass” value ([2]; Mean) was 2.67 % of dose. For the same substance, the “Radioactivity remaining in Prostate gland” value ([2]; Mean) was 99.19 % of dose, the “Radioactivity remaining in Carcass” value ([2]; animal 1) was 2.32 % of dose and the “Radioactivity remaining in Prostate gland” value ([2]; animal 1) was 98.84 % of dose. For the same substance, the “Radioactivity remaining in Carcass” value ([2]; animal 2) was 3.27 % of dose, the “Radioactivity remaining in Prostate gland” value ([2]; animal 2) was 96.79 % of dose and the “Radioactivity remaining in Carcass” value ([2]; animal 3) was 2.42 % of dose. For the same substance, the “Radioactivity remaining in Prostate gland” value ([2]; animal 3) was 101.94 % of dose, the Total recovery rate ([2]; Mean) was 99.65% and the Total recovery rate ([2]; animal 1) was 99.23%. The Total recovery rate ([2]; animal 2) was 97.27%, the Total recovery rate ([2]; animal 3) was 102.46% and the “Tumor volume after injection” value ([3]; 10 mCi per 1 cm^3 tumor, 1 wk) was 0.48 ± 0.35 cm^3. For the same substance, the “Tumor volume after injection” value ([3]; 10 mCi per 1 cm^3 tumor, 2 wks) was 0.32 ± 0.20* cm^3, the “Tumor growth inhibition rate” value ([3]; 10 mCi per 1 cm^3 tumor) was 95.1% and the “Tumor volume after injection” value ([3]; 20 mCi per 1 cm^3 tumor, 1 wk) was 0.28 ± 0.04 cm^3. For the same substance, the “Tumor volume after injection” value ([3]; 20 mCi per 1 cm^3 tumor, 2 wks) was 0.09 ± 0.24* cm^3, the “Tumor growth inhibition rate” value ([3]; 20 mCi per 1 cm^3 tumor) was 98.6% and the “Tumor growth inhibition rate” value ([3]; 20 mCi per 1 cm^3 tumor, listed as Complex) was 98.6%. The “Inhibitory activity against the tumor growth” value ([3]; subcutaneous tumor model) was “higher than 95%”, the “Histopathology of the tumor, center of injection site” value [4, 5] was “broad necrosis” and the “Tumor cells in injection site” value [4, 5] was “all of tumor cells in injection site are necrotized”. The “Histopathology of the tumor tissue at the administration site” value ([4]; last day of the test) was “a large necrosis”.

From patent US20060286032A1, “A radiosotope-chitosan complex for treatment of prostate cancer” (priority 2003, published 2006)
